# Experimental data reported in patent US20250376505A1 (UNIVERSITE DE STRASBOURG, published 2025).
# Columns and labels:
# [1] = target: T1, VP1 pentamer of BKV genotype IV (BK virus genotype IV, UniProt P14996 30-300); assay: ELISA, coated VP1 pentamer
# T1 construct: also called VP1 pentamers of genotype IV; GIV; not shown: N-terminal His-tag of pESPRIT002; C-terminal biotin acceptor peptide (BAP) of pESPRIT002
# [2] = target: T2, VP1 pentamer of BKV genotype II (BK virus genotype II, UniProt P14996 30-300); assay: ELISA, coated VP1 pentamer
# T2 construct: also called VP1 pentamers of genotype II; GII; not shown: N-terminal His-tag of pESPRIT002; C-terminal biotin acceptor peptide (BAP) of pESPRIT002
# [3] = target: VP1 capsid protein on BKV genotype Ia pseudovirions (BK-D; JF894228) (BK virus genotype Ia (BK-D)); assay: cell-based or functional assay
# [4] = target: VP1 capsid protein on BKV genotype II pseudovirions (GBR-12; AB263920) (BK virus genotype II (GBR-12)); assay: cell-based or functional assay
# [5] = target: VP1 capsid protein on BKV genotype IVc2 pseudovirions (A-66H; AB369093) (BK virus genotype IVc2 (A-66H)); assay: cell-based or functional assay
Binder,binding result [1],binding result [2],Neutralization PSV IC50 [3] [µg/mL],Neutralization PSV IC50 [4] [µg/mL],Neutralization PSV IC50 [5] [µg/mL],EC50 [1] [µg/mL],EC50 [2] [µg/mL]
"B5P4 (antibody, V domains shown) VH: QVQLVQSGAEVKKPGSSVKVSCKASGGRFSRYGSSWVRQAPGQGLEWMGGIIPLLGTANYAQKFQDRVSITADESTSTVYMHLSSLRSEDTAVYYCATARREYDRPGAEYFIQWGQGTLVTVSS VL: EIVMTQSPATLSVSPGERATLSCRASQSVSTNLAWYQQKPGQAPRLLIYDAFLRATGIPARFSGSGSGTEFTLTISSLQPEDFAVYYCQQYNYWPPLTFGGGTKVEIK",no binding (tested: 50 µg/mL (starting concentration)),no binding (tested: 50 µg/mL (starting concentration)),,,,,
"E10P2 (antibody, V domains shown) VH: EVQLLESGGALVQPGGSLRLSCAASGFTFRSYAMNWVRQAPGKGLEWVSSLSSSGTTTYYADSVKGRFTISRDNSKNTMYLQMDSLRGEDTAVYYCAKDRNAQWLGSEPLDPWGQGTLVTVSS VL: EIVLTQSPGTLSLSPGERATLSCRASQSVSSSYLAWYQQKPGQAPRLLIYGASSRATGIPDRFSGSGSGTDFTLTISSLQPDDFAIYYCQQAYTFPWTFGQGTKLEIK",no binding (tested: 50 µg/mL (starting concentration)),no binding (tested: 50 µg/mL (starting concentration)),,,,,
"C9P1 (antibody, V domains shown) VH: EVQLLESGGGLVQPGGSLRLSCVTSGFTFSSYSMTWVRQAPGKGLEWVSYISSSSRTISYADSVQGRFTISRDNAKNVLYLQMNSLRAEDTAVYYCARQAVAHFDYWGQGTLVTVSS VL: EIVLTQSPGTLSLSPGERATLSCRASQRVSSNYLAWYQQKPGQAPRLLIYGASSRATGIPDRFSGSGSGTDFTLTISRLEPEDFAVYYCQQYGTSPRSFGQGTKVEIK",no binding (tested: 50 µg/mL (starting concentration)),no binding (tested: 50 µg/mL (starting concentration)),,,,,
"D11P7 (antibody, V domains shown) VH: EVQLVESGGGLVQPGGSLRLSCAASGFTFRSYTMDWVRQAPGKGLEWVSCISGSSNHKYYADSVRGRFTISRDNAKNSLFLQMNSLRAEDSAVYYCAREDDILTPLYGMDVWGPGTTVTVSS VL: QSALTQPASVSGSPGQSITISCTGTSSDVGAYNYVSWYRLRPGKDPHLIIYDVSHRPAGVSNRFSGSKSGNTASLTISGLQAEDEDEYYCCSYAHRGTPLFGGGTKLTVL",no binding (tested: 50 µg/mL (starting concentration)),no binding (tested: 50 µg/mL (starting concentration)),,,,,
"D9P6 (antibody, V domains shown) VH: QLQLQESGPGLVKPSETLSLTCTVSGTYISTNSYYWGWIRQPPGKGLEWIGSIEYGGSTYYNPSLRSRLTISVDTSKNHFSLRLSSVTAADTAMYYCASANSHYYDSGGYCAPSALDIWGQGTMVTVSS VL: EIVMTQSPATLSVSPGERVTLSCRASQSASSHLAWYQHKRGQAPRLLIYAASSRATGIPARFSGRGSGTEFTLTISSLQSEDFAVYYCQQYNNWPPGYSFGQGTKLEIK",,,> 50,> 50,> 50,4,9
